# Results taken from patent US20130296258A1 (Pieris, published 2013).
# B1: Lcn2 wildtype protein (other)
# chain: QDSTSDLIPAPPLSKVPLQQNFQDNQFHGKWYVVGLAGNAILREDKDPQKMYATIYELKEDKSYNVTSVLFRKKKCDYWIRTFVPGSQPGEFTLGNIKSYPGLTSYLVRVVSTNYNQHAMVFFKKVSQNREYFKITLYGRTKELTSELKENFIRFSKSLGLPENHIVFPVPIDQCIDG
# notes: also called recombinant Lcn2; negative control; not shown: C-terminal Strep-tag II of the phNGAL98 expression vector
# B2: PIE-G3A (designed binder)
# chain: QDSTSDLIPAPPLSKVPLQQNFQDNQFHGKWYVVGIAGNWILREDKDPPKMRATIYELKEDKSYNVTRVRFDEKKCGYGIATFVPGSQPGEFTLGVIKSRPGITSDLVRVVSTNYNQHAMVFFKFVKQNREYFGITLYGRTKELTSELKENFIRFSKSLGLPENHIVFPVPIDQCIDGSAWSHPQFEK
# notes: Made in E. coli from phNGAL98 with a C-terminal Strep-tag II; also called Lcn2 mutein; not shown: C-terminal Strep-tag II
# B3: PIE-G3E (designed binder)
# chain: QDSTSDLIPAPPLSKVPLQQNFQDNQFHGKWYVVGSAGNHRLREDKDPRKMHATIYELKEDKSYNVTNVTFREKKCHYSIGTFVPGSQPGEFTLGKIKSNPGMTSFLVRVVSTNYNQHAMVFFKKVHQNREQFNITLYGRTKELTSELKENFIRFSKSLGLPENHIVFPVPIDQCIDGSAWSHPQFEK
# notes: C-terminal Strep-tag II; also called Lcn2 mutein; not shown: C-terminal Strep-tag II
# B4: PIE-G3C (designed binder)
# chain: QDSTSDLIPAPPLSKVPLQQNFQDNQFHGKWYVVGRAGNVALREDKDPPKMRATIYELKEDKSYNVTNVRFAMKKCMYSIGTFVPGSQPGEFTLGQIKSEPGNTSNLVRVVSTNYNQHAMVFFKEVYQNREIFFITLYGRTKELTSELKENFIRFSKSLGLPENHIVFPVPIDQCIDGSAWSHPQFEK
# notes: as for B3
# B5: PIE-G3H (designed binder)
# chain: QDSTSDLIPAPPLSKVPLQQNFQDNQFHGKWYVVGIAGNYILREDKDPPKMRATIYELKEDKSYNVTRVFFSRKKCDYIIWTFVPGSQPGEFTLGFIKSNPGLTSLLVRVVSTNYNQHAMVFFKWVDQNREVFGITLYGRTKELTSELKENFIRFSKSLGLPENHIVFPVPIDQCIDGSAWSHPQFEK
# notes: as for B3
# B6: PIE-G3B (designed binder)
# chain: QDSTSDLIPAPPLSKVPLQQNFQDNQFHGKWYVVGVAGNAMLREDKDPLKMRATIYELKEDKSYNVTGVSFWRKKCHYKIGTFVPGSQPGEFTLGDIKSGPGQTSNLVRVVSTNYNQHAMVFFKEVRQNREWFAITLYGRTKELTSELKENFIRFSKSLGLPENHIVFPVPIDQCIDGSAWSHPQFEK
# notes: as for B3
# B7: PIE-G3D (designed binder)
# chain: QDSTSDLIPAPPLSKVPLQQNFQDNQFHGKWYVVGMAGNARLREDKDPVKMTATIYELKEDKSYNVTAVQFRLKKCQYGITTFVPGSQPGEFTLGDIKSIPGLTSMLVRVVSTNYNQHAMVFFKRVRQNREFFDITLYGRTKELTSELKENFIRFSKSLGLPENHIVFPVPIDQCIDGSAWSHPQFEK
# notes: as for B3
# B8: PIE-G3F (designed binder)
# chain: QDSTSDLIPAPPLSKVPLQQNFQDNQFHGKWYVVGIAGNGQLREDKDPWKMSATIYELKEDKSYNVTSVRFRLKKCSYWIYTFVPGSQPGEFTLGGIKSNPGDTSNLVRVVSTNYNQHAMVFFKYVIQNREWFIITLYGRTKELTSELKENFIRFSKSLGLPENHIVFPVPIDQCIDGSAWSHPQFEK
# notes: as for B3
# B9: PIE-G3G (designed binder)
# chain: QDSTSDLIPAPPLSKVPLQQNFQDNQFHGKWYVVGMAGNASLREDKDPRKMNATIYELKEDKSYNVTKVRFWHKKCYYSITTFVPGSQPGEFTLGDIKSYPGWTSYLVRVVSTNYNQHAMVFFKGVRQNREWFSITLYGRTKELTSELKENFIRFSKSLGLPENHIVFPVPIDQCIDGSAWSHPQFEK
# notes: as for B3
# How the values were obtained:
# [1] = biological target: T1, Recombinant human Glypican-3 (human, UniProt P51654 25-559, limits assumed, randomly biotinylated via Lysine residues (EZ-Link Sulfo-NHS-LC-LC-Biotin) where captured on Neutravidin; not biotinylated where used as competitor in solution); test: direct ELISA: biotinylated human Glypican-3 captured via Neutravidin, protein titrated, RFU readout
# T1 construct: Bought protein; The biotinylated and the non-biotinylated preparation are written as one molecule; also called GPC3; GPC-3
# T1 sequence (P51654 25-559 limits assumed): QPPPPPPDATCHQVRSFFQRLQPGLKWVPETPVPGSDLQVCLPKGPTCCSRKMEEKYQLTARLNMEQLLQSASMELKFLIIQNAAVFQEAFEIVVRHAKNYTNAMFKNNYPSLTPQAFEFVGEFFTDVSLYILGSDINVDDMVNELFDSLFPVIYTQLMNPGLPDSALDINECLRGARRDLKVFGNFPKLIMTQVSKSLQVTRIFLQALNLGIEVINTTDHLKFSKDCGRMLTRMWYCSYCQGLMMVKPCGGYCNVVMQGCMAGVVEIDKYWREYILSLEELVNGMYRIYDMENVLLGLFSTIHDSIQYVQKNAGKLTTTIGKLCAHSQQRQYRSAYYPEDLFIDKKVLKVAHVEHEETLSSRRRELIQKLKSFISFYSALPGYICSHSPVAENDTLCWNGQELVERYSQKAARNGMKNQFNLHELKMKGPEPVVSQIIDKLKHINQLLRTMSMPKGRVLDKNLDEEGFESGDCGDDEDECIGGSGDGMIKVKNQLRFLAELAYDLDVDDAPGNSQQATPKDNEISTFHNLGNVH
# Protocol: (§1) A “direct” ELISA was performed to verify the binding affinity and specificity of the selected Lcn2 muteins. Therefore, a constant concentration of 1 μg/ml biotinylated human Glypican 3 (R&D Systems) was captured on the surface of a polystyrol plate (Greiner, GE) via BSA blocked Neutravidin (Thermo Scientific, 5 μg/ml). Two step dilution series of purified Lcn2 muteins were incubated with the captured GPC-3 for 1 h at room temperature and detected either via the Strep-tag II using a rabbit anti-strep-tag II polyconal antibody (GenScript, USA) or by using a scaffold-specific polyclonal rabbit antibody. In both cases an anti rabbit IgG-HRP conjugate (Abcam, UK) was employed as secondary detection antibody.
# (§2) The absorption ΔA at […] was measured in an ELISA reader (Tecan, GE) and the data were fitted with Graphpad Prism software (Statcom, USA).
# [2] = biological target: T1, Recombinant human Glypican-3; test: direct ELISA; biotinylated human Glypican-3 (1 ug/ml) captured via Neutravidin, dilution series of purified mutein
# Protocol: as §1, §2
# [3] = biological target: T1, Recombinant human Glypican-3; test: SPR (Biacore T100), Glypican-3 amine-coupled to a CM5 chip, mutein as analyte, evaluated conc 40/120 nM, 1:1 model
# Protocol: (§3) Real time analysis of the binding of the Lcn2 muteins to Glypican-3 was performed on a Biacore T100 system (GE Healthcare Bio-Sciences AB, Uppsala, Sweden) using HBS-EP+ (BR-1006-69, GE Healthcare Bio-Sciences AB, Uppsala, Sweden) as running buffer. A 10 μg/mL solution of Glypican-3 in 10 mM sodium acetate pH 4.5 was immobilized onto a CM5 chip (GE Healthcare Bio-Sciences AB, Uppsala, Sweden) using standard amine coupling chemistry, resulting in a ligand density of 467 RU. The purified Lcn2 muteins were applied in concentrations of 40 nM and 120 nM at a flow rate of 30 μL/min. The dilutions were injected with association times of 120 sec and dissociation times of 420 sec to obtain ka and kd information. Regeneration of the ligand was achieved by injecting either 6 M Guanidinium-HCl (120 sec/300 sec) or 3 M MgCl2 (900 sec) with a flow rate of 10 μL/min. Injection of regeneration solutions was followed by an extra wash step with running buffer and a stabilization period of 180 sec.
# (§4) The data were double-referenced by subtraction of the corresponding signals measured for the control channel, which had been activated and blocked with ethanolamine and by substraction of buffer injections from the binding responses. ka and kd for the binding reaction were determined using Biacore T100 Evaluation Software V2.0.1 for data processing and kinetic fitting. The data were globally fit with 1:1 binding model.
# [4] = biological target: T1, Recombinant human Glypican-3; test: flow cytometry on SK-HEP1 cells stably transfected with human GPC3, detection via rabbit anti-hNGAL antiserum and anti-rabbit IgG-PE
# Protocol: (§5) Empty vector control cells were also obtained and analyzed in parallel. Detection of GPC3 was achieved using mouse anti-glypican 3 clone 1G12 monoclonal antibody (DCS).
# (§6) In order to assess binding of muteins to the GPC3 on the cell surface, 200,000 cells in PBS/2% FCS were used in each binding reaction. Reactions were performed on ice in 30 μl for 2 h. Following two washing steps in PBS/2% FCS a secondary rabbit anti-hNGAL scaffold antiserum was employed for 30 min. followed another two wash steps. […] Measurements were performed on a FACSCalibur flow cytometer where 10,000 events were acquired for each sample. Geometric mean values were compiled in FlowJo (Treestar software) and fitted to a sigmoidal dose response model in the Prism 5 program (GraphPad) to obtain EC50 values.
# cyno GPC3-SK-HEP1 = biological target: T2, cyno GPC3-SK-HEP1 (Macaca fascicularis, UniProt A0A2K5VK50); test: flow cytometry on SK-HEP1 cells stably transfected with cynomolgus GPC3, detection via rabbit anti-hNGAL antiserum and anti-rabbit IgG-PE
# T2 construct: cell-surface protein on transfected cells; also called cynomolgus GPC3; cyno GPC3 transfected SK-Hep1 cells
# Protocol: as §5, §6
# [5] = biological target: T1, Recombinant human Glypican-3; test: competition ELISA: constant mutein pre-incubated with a dilution series of non-biotinylated human Glypican-3, free mutein detected on plate-captured biotinylated human Glypican-3
# Protocol: The binding affinity of the Lcn2 muteins to non-modified Glypican-3 in solution was evaluated in a competition ELISA approach. Therefore, a constant concentration of 1 μg/ml biotinylated human Glypican-3 (R&D Systems) was captured on the surface of a polystyrol plate (Greiner, GE) via Neutravidin (Thermo Scientific, 5 μg/ml, GE). In parallel a two step dilution series of non-biotinylated human Glypican-3 starting from 1.5 μM was incubated with a constant concentration of GPC3-specific mutein for 1 h at room temperature in a non-protein binding 96 well polypropylene plate (Nunc, GE). The constant concentration of lipocalin muteins corresponds to the EC₅₀ of the respective muteins as determined in a direct ELISA as described above in this example. In the following the mixture of non-modified human GPC3 and lipocalin mutein was transferred onto the GPC3-captured Neutravidin plate. The biotinylated GPC3 was allowed to compete with the non-modified GPC3 for Anticalin binding for 1 h at room temperature. During these 1 h, free lipcocalin mutein was bound to the captured GPC3 and detected via a rabbit anti-strep-tag II polyconal antibody (GenScript, USA). A goat anti-rabbit IgG-HRP conjugate (Abcam, UK) was employed as secondary detection antibody. Parallel to the competition assay, anticalin binding was determined on the same plate in a “direct” ELISA, in order to obtain a standard curve linking the RFU values to anticalin concentration. This curve was then used to standardize competition data to the level of anticalins bounds to the plate and fitted with Graphpad software. IC₅₀ values correspond to the half-maximum amount of lipocalin mutein bound to the plate.
# mouse GPC3-SK-HEP1 = biological target: T3, mouse GPC3-SK-HEP1 (mouse, UniProt Q8CFZ4); test: flow cytometry on SK-HEP1 cells stably transfected with mouse GPC3, detection via rabbit anti-hNGAL antiserum and anti-rabbit IgG-PE
# T3 construct: cell-surface protein on transfected cells; also called mouse GPC3 transfected SK-Hep1 cells
# T3 sequence (Q8CFZ4 25-553 limits assumed): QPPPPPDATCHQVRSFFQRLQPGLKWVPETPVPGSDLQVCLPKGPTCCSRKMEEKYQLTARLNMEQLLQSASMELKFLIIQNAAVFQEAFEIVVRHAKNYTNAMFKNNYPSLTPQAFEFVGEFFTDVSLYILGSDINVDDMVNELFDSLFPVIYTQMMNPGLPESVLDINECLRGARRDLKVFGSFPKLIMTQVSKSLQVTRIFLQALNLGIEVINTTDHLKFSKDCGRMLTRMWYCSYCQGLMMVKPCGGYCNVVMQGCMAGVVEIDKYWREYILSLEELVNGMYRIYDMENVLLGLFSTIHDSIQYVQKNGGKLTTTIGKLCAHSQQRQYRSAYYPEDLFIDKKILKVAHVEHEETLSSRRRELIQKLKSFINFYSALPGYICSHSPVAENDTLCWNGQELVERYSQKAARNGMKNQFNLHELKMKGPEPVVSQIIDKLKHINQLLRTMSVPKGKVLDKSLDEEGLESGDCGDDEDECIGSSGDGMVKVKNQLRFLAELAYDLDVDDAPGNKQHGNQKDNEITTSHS
# Protocol: as §5, §6
# [6] = biological target: T1, Recombinant human Glypican-3; test: SPR (Biacore T100), Glypican-3 amine-coupled to a CM5 chip, mutein as analyte, evaluated conc 120 nM, 1:1 model
# Protocol: as §3, §4
Binder,binding result [1],Kd [2] [nM],Kd [3] [nM],koff [3] [s⁻¹],kon [3] [M⁻¹ s⁻¹],EC50 [4] [nM],EC50 (cyno GPC3-SK-HEP1) [nM],IC50 [5] [nM],EC50 (mouse GPC3-SK-HEP1) [nM],Kd [6] [nM],koff [6] [s⁻¹],kon [6] [M⁻¹ s⁻¹]
B1,no binding,–,–,–,–,–,–,–,–,–,–,–
B2,–,7.6,3.78,0.000603,160000,> 100,> 100,0.6,–,–,–,–
B3,–,0.2,0.35,0.00178,5.11e+06,0.4,0.12,0.1,2.7,–,–,–
B4,–,0.32,1.21,0.00238,1.97e+06,0.5,0.2,1,3.5,–,–,–
B5,–,0.3,–,–,–,49,98,0.23,580,1.07,0.000209,195000
B6,–,0.27,0.55,0.000242,438000,2.5,1.1,0.2,2.9,–,–,–
B7,–,0.46,1.4,0.00109,781000,1,0.7,0.7,10.5,–,–,–
B8,–,0.35,3.13,0.00128,409000,4.7,3.2,0.07,18.7,–,–,–
B9,–,0.27,0.51,0.000723,1.42e+06,0.7,0.2,0.1,4.3,–,–,–
